Test results published in the supplement of paper PMC10567573.

B1: FAM46C (parent)
chain: FDHLQNRLIATKNPEEIRGGGLLK
B2: TPPP (parent)
chain: LCKDCQVIDGRNVTVTDVDIVFSK

Variants of: B1
Assay: protein stability index of a GFP-peptide fusion (GPS, HEK-293T) (PSI 1-6); higher = more stable
Details: c terminus: a fixed tail appended
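Further: lentivirally expressed fusions sorted by FACS into six bins by GFP to DsRed ratio, PSI derived from sequencing read proportions per bin multiplied by bin number.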

Variant	protein stability index
K12H	3.1
K12F	2.59
K12P	4.24
K12Y	3.24
L23Y	2.99
L23D	4.65
L23F	3.36
K24E	3.79
K24Q	3.27
K24A	2.94
E15L	2.78
E15I	2.93
E15R	3.89
D2C	1.72
D2E	4.18
D2M	2.17
D2T	1.93
L4A	3.78
L4Q	4.47
L4F	3.87
L4W	3.8
L4P	4.62

Variant	protein stability index
L4G	5.22
P14N	4.12
P14V	3.25
P14I	2.39
P14W	2.59
N13K	4.03
N13S	3.62
N13G	2.86
L8I	3.66
L8C	4.03
L8E	5.03
L8Q	5.05
R7G	3.09
R7H	4.35
R7A	4.42
R7E	4.55
L22T	4.34
L22V	4.14
L22M	4
L22S	4.32
L22C	3.78
L22I	4.01

Variant	protein stability index
G19T	4.01
G19H	3.99
G19K	4.26
T11N	4.01
T11F	3.73
T11R	3.97
A10Q	2.25
A10G	3.52
A10D	4.49
A10L	2.57
I17N	4.27
I17E	4.26
G20S	3.69
G20F	2.77
G20A	3.44
G20Q	2.42
G20W	3.16
G20K	3.98
G20H	3.72
E16Y	3.91
E16V	3.61
E16N	3.67

Variant	protein stability index
E16F	2.44
E16R	3.47
E16D	4.13
E16T	3.79
N6Y	2.95
N6Q	4.1
N6V	2.55
G21N	4.51
G21F	2.82
G21A	3.69
G21R	3.47
G21E	3.93
F1H	4.47
F1G	3.9
F1I	3.5
F1T	4.28
F1S	4.09
F1P	4.59
F1M	4.39
F1C	2.3
F1V	4.67
I9C	4.43

Variant	protein stability index
R18Y	3.58
R18K	4.05
R18N	3.83
R18F	2.98
R18W	2.58
R18S	3.77
R18I	3.32
R18V	3.64
H3E	4.28
H3Q	3.51
H3R	3.73
H3F	2.06
H3P	4
Q5I	3.17
Q5H	3.87
Q5M	2.92
Q5W	1.08
Q5V	3.33

Variants of: B2
Assay: as above
Details: c terminus: a fixed tail appended

Variant	protein stability index
K24W	2.25
K24D	2.77
K24L	2.99
K24H	2.48
K24C	2.02
K24A	2.24
K24R	2.39
K24N	3.05
K24P	2.62
K24Q	2.35
K24S	2.44
K24Y	2.06
K24G	2.55
K24E	3.39
K24T	1.97
V21P	2.66
V21T	3.2
V21N	3.45
V21M	1.96
V21R	2.46
V21Q	2.15

Variant	protein stability index
V21W	2.07
V21Y	2.08
V21S	3.34
F22I	2.09
F22Q	3.59
F22N	3.66
F22W	2.3
F22V	2.53
F22K	3.94
F22D	3.96
F22R	3.31
F22M	3.12
F22P	3.47
F22E	4.25
F22L	2.08
F22G	4.09
F22A	2.5
F22H	4.43
F22S	2.78
F22T	3.48
F22C	3.38

Variant	protein stability index
F22Y	2.84
S23E	3.28
S23D	2.81
S23Q	2.6
S23R	2.35
S23N	2.75
S23F	1.58
S23Y	1.72
S23K	3.58
S23I	2.1
S23M	1.84
S23H	3.26
S23A	2.55
S23P	2.98
S23T	2.23
S23L	1.82
S23W	2.31
S23C	3.21
S23G	3.13
